Assay results from publication PMC5967840.

Legend:
Assay in all cases: AUC; sedimentation velocity (60 krpm) and sedimentation equilibrium (six rotor speeds, 30-48 krpm, single ideal species model); 325 uM peptide in PI buffer (10 mM potassium phosphate pH 7.4), 1.625 mM TCEP, 25 mM NaCl, 20 °C
CC-R4-Tri3 = target: CC-R4-Tri3
[1] = target: CC-Tri3 variant with a negatively charged E4 block at the C terminus
[2] = target: CC-Tri3 variant with a negatively charged E4 block at the N terminus
[3] = target: CC-Tri3 with tetra-lysine (K4) appended to the N terminus
CC-Tri3-K4 = target: CC-Tri3-K4
CC-Tri3-R4 = target: CC-Tri3-R4

**Q.** With CC-R4-Tri3 (peptide) as the substance, how does the stoichiometry N (CC-R4-Tri3) read?
**A.** The stoichiometry N was 3.

**Q.** “CC-Tri3 variant with a negatively charged E4 block at the C terminus (peptide)” was tested. Which stoichiometry N [1] did it give?
**A.** The stoichiometry N was 3.

**Q.** “CC-Tri3 variant with a negatively charged E4 block at the N terminus (peptide)” was tested. Which stoichiometry N [2] did it give?
**A.** The stoichiometry N was 3.

**Q.** Which stoichiometry N [3] does the source give for “CC-Tri3 with tetra-lysine (K4) appended to the N terminus (peptide)” here?
**A.** The stoichiometry N was 3.

**Q.** For CC-Tri3-K4 (peptide), which stoichiometry N (CC-Tri3-K4) is on record?
**A.** The stoichiometry N was 3.

**Q.** Which stoichiometry N (CC-Tri3-R4) does the source give for CC-Tri3-R4 (peptide) here?
**A.** The stoichiometry N was 3.
